Measurements: paper doi:10.1101/2024.03.12.584565 (bioRxiv, 2024)
Positions count from the first letter of the chain named. Each block holds one binder with its values, some of them ahead of it.

How the values were obtained:
His6-SUMO3-sororin = His6-SUMO3-sororin (human, UniProt Q96FF9 1-252); assay: pull-down
recombinant human Wapl = target: T1, recombinant human Wapl (human, UniProt Q7Z5K2 1-1190); assay: pull-down
T1 sequence: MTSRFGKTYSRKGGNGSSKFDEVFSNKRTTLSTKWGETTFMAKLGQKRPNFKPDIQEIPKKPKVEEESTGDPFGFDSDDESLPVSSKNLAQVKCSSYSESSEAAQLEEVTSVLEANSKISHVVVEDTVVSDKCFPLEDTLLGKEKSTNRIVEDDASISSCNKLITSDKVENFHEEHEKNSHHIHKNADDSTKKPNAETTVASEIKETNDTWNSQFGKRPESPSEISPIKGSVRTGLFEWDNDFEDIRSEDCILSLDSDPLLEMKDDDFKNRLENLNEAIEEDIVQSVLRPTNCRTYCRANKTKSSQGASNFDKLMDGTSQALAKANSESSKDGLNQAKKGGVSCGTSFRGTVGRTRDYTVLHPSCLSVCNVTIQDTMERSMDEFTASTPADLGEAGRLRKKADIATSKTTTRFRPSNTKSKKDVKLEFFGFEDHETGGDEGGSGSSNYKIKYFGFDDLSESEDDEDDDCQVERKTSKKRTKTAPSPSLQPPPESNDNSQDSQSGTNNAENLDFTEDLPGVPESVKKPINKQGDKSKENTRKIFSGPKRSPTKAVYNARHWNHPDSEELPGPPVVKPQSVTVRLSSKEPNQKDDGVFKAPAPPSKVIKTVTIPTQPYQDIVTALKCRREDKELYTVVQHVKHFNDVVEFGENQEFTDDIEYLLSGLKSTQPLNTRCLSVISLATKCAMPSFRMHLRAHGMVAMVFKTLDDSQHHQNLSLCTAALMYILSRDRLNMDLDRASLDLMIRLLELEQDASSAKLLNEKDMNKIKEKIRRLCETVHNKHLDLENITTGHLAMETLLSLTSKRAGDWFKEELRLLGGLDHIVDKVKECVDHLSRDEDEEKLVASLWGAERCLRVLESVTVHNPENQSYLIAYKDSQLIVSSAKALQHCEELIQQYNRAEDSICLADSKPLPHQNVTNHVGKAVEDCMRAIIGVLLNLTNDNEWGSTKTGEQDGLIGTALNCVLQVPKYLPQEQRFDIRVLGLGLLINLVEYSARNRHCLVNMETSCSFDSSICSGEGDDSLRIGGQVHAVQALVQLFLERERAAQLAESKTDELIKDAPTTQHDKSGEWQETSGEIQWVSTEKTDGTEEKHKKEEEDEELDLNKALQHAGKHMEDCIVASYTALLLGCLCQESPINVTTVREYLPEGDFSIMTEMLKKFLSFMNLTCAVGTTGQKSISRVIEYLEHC

His6-SUMO3-sororin, sequence (Q96FF9 whole entry): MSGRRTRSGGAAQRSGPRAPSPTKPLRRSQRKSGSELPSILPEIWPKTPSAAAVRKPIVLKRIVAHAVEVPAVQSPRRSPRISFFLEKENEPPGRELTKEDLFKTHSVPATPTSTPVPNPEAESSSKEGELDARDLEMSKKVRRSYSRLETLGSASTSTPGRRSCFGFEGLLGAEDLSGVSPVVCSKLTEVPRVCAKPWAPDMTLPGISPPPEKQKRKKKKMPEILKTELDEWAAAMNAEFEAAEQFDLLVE

binding result (His6-SUMO3-sororin): binds
B1: Flag-tagged Pds5b-Ser1177,1182,1209Ala (3A), untreated or exposed to Nek2a (natural protein)
chain: MAHSKTRTNDGKITYPPGVKEISDKISKEEMVRRLKMVVKTFMDMDQDSEEEKELYLNLALHLASDFFLKHPDKDVRLLVACCLADIFRIYAPEAPYTSPDKLKDIFMFITRQLKGLEDTKSPQFNRYFYLLENIAWVKSYNICFELEDSNEIFTQLYRTLFSVINNGHNQKVHMHMVDLMSSIICEGDTVSQELLDTVLVNLVPAHKNLNKQAYDLAKALLKRTAQAIEPYITNFFNQVLMLGKTSISDLSEHVFDLILELYNIDSHLLLSVLPQLEFKLKSNDNEERLQVVKLLAKMFGAKDSELASQNKPLWQCYLGRFNDIHVPIRLECVKFASHCLMNHPDLAKDLTEYLKVRSHDPEEAIRHDVIVSIVTAAKKDILLVNDHLLNFVRERTLDKRWRVRKEAMMGLAQIYKKYALQSAAGKDAAKQIAWIKDKLLHIYYQNSIDDRLLVERIFAQYMVPHNLETTERMKCLYYLYATLDLNAVKALNEMWKCQNLLRHQVKDLLDLIKQPKTDASVKAIFSKVMVITRNLPDPGKAQDFMKKFTQVLEDDEKIRKQLEVLVSPTCSCKQAEGCVREITKKLGNPKQPTNPFLEMIKFLLERIAPVHIDTESISALIKQVNKSIDGTADDEDEGVPTDQAIRAGLELLKVLSFTHPISFHSAETFESLLACLKMDDEKVAEAALQIFKNTGSKIEEDFPHIRSALLPVLHHKSKKGPPRQAKYAIHCIHAIFSSKETQFAQIFEPLHKSLDPSNLEHLITPLVTIGHIALLAPDQFAAPLKSLVATFIVKDLLMNDRLPGKKTTKLWVPDEEVSPETMVKIQAIKMMVRWLLGMKNNHSKSGTSTLRLLTTILHSDGDLTEQGKISKPDMSRLRLAAGSAIVKLAQEPCYHEIITLEQYQLCALAINDECYQVRQVFAQKLHKGLSRLRLPLEYMAICALCAKDPVKERRAHARQCLVKNINVRREYLKQHAAVSEKLLSLLPEYVVPYTIHLLAHDPDYVKVQDIEQLKDVKECLWFVLEILMAKNENNSHAFIRKMVENIKQTKDAQGPDDAKMNEKLYTVCDVAMNIIMSKSTTYSLESPKDPVLPARFFTQPDKNFSNTKNYLPPEMKSFFTPGKPKTTNVLGAVNKPLSSAGKQSQTKSSRMETVSNASSSSNPSSPGRIKGRLDSAEMDHAENEDYTMSSPLPGKKSDKRDDSDLVRAELEKPRGRKKTPVTEQEEKLGMDDLTKLVQEQKPKGSQRSRKRGHTASESDEQQWPEEKRLKEDILENEDEQNSPPKKGKRGRPPKPLGGGTPKEEPTMKTSKKGSKKKSGPPAPEEEEEEERQSGNTEQKSKSKQHRVSRRAQQRAESPESSAIESTQSTPQKGRGRPSKTPSPSQPKKNVRVGRSKQAATKENDSSEEVDVFQGSSPVDDIPQEETEEEEVSTVNVRRRSAKRERR

binding result (recombinant human Wapl): binds
B2: Flag-tagged Pds5b-Ser1177,1182,1209Ala (3A), phosphorylated by Cdk1/2-cyclin A2 in vitro (natural protein)
chain: B1 chain

binding result (His6-SUMO3-sororin): binds
B3: Flag-tagged Pds5b-Ser1161,1166,1177,1182,1209Ala (5A), untreated or exposed to Nek2a and Cdk1/2-cyclin A2 (natural protein)
chain: B1 chain with S1161A, S1166A
